# B1: Succinate dehydrogenase [ubiquinone] iron-sulfur subunit, mitochondrial (Homo sapiens), P21912 (parent)
# chain: MAAVVALSLRRRLPATTLGGACLQASRGAQTAAATAPRIKKFAIYRWDPDKAGDKPHMQTYEVDLNKCGPMVLDALIKIKNEVDSTLTFRRSCREGICGSCAMNINGGNTLACTRRIDTNLNKVSKIYPLPHMYVIKDLVPDLSNFYAQYKSIEPYLKKKDESQEGKQQYLQSIEEREKLDGLYECILCACCSTSCPSYWWNGDKYLGPAVLMQAYRWMIDSRDDFTEERLAKLQDPFSLYRCHTIMNCTRTCPKGLNPGKAIAEIKKMMATYKEKKASV
# partner: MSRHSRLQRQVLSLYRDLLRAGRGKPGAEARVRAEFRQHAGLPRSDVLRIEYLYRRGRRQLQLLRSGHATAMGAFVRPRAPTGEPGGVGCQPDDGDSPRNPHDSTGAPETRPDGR
# Variants of: B1
# Conditions: with sdhf1_human SDHAF1, A6NFY7
row,Variant,effect of a mutation on the interaction
1,L183A;Y184A;E185A,disrupting interaction strength
2,S198A;Y199A;W200A;W201A;N202A,disrupting interaction strength
3,R177A;K179A;L180A;D181A,increasing interaction strength
